Data published in US20130005646A1 (Novo Nordisk, published 2013).
Starred links: 1 amine or outer side, 2 acyl side, 3 side chain; linkers in the order of their positions; H or OH if unused. Positions of bridges follow the written chain, without caps; N, C: chain ends. *: point of attachment. X1 = (S)‑4‑Carboxy‑4‑(19-carboxynonadecanoylamino)butyryl, O=C(O)CCCCCCCCCCCCCCCCCCC(=O)N[C@@H](CCC(=O)*)C(=O)O; C20 diacid = O=C(O)CCCCCCCCCCCCCCCCCCC(=O)*; 19‑carboxyheptadecanoyl = not defined here; γGlu = O=C(O)[C@H](CCC(=O)[*:2])N[*:1]; AEEA = NCCOCCOCC(=O)O

T1: human amylin 3(a) receptor (human calcitonin receptor + RAMP-3) (human, UniProt P30988 25-474; O60896 24-148)
T1 sequence (looked up) 1: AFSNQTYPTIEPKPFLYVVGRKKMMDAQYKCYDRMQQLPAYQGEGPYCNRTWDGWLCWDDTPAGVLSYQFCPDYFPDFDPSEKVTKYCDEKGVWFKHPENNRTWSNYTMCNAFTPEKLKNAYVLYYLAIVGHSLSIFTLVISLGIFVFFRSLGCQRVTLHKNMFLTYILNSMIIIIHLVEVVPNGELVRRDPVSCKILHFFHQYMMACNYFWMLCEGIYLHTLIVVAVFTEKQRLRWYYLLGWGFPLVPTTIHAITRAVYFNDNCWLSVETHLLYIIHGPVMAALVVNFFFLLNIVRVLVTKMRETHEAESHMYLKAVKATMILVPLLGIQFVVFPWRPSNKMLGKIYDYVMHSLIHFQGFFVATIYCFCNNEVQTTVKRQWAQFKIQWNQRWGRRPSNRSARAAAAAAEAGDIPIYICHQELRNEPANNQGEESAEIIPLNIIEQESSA
T1 sequence (looked up) 2: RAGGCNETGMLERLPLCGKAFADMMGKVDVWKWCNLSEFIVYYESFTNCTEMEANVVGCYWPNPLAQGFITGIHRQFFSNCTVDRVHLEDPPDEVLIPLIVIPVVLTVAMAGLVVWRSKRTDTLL

T2: human calcitonin (a) receptor (human, UniProt P30988 25-474)
T2 sequence (looked up): T1 sequence (looked up) 1

B1: N-alpha-[(S)-4-Carboxy-4-(19-carboxynonadecanoylamino)butyryl]-[Glu14,His17,His36]-pramlintide (peptide)
peptide: {C20 diacid-γGlu}-KCNTATCATQRLAEFLHHSSNNFGPILPPTNVGSNHY-NH2
modifications: disulfide 2-7; not fully specified; printed as N-alpha-[(S)-4-Carboxy-4-(19-carboxynonadecanoylamino)butyryl]-[Glu14,His17,His36]-pramlintide
B2: N-alpha-[2-(2-{2-[2-(2-{2-[(S)-4-Carboxy-4-(19-carboxyheptadecanoylamino)butyrylamino]ethoxy}ethoxy)acetylamino]ethoxy}ethoxy)acetyl]-[Glu14,His17,Ser21,His35]- … (peptide)
peptide: {19‑carboxyheptadecanoyl-γGlu-AEEA-AEEA}-KCNTATCATQRLAEFLHHSSSNFGPILPPTNVGSHTY-NH2
modifications: disulfide 2-7; reading uncertain; also: printed as N-alpha-[2-(2-{2-[2-(2-{2-[(S)-4-Carboxy-4-(19-carboxyheptadecanoylamino)butyrylamino]ethoxy}ethoxy)acetylamino]ethoxy}ethoxy)acetyl]-[Glu14,His17,Ser21,His35]-pramlintide
B3: N-alpha-[(S)-4-Carboxy-4-(19-carboxynonadecanoylamino)butyryl]-[Glu14,His17,Gln21,His35)-pramlintide (peptide)
peptide: {C20 diacid-γGlu}-KCNTATCATQRLAEFLHHSSQNFGPILPPTNVGSHTY-NH2
modifications: disulfide 2-7
SMILES: CC[C@H](C)[C@H](NC(=O)[C@@H]1CCCN1C(=O)CNC(=O)[C@H](Cc1ccccc1)NC(=O)[C@H](CC(N)=O)NC(=O)[C@H](CCC(N)=O)NC(=O)[C@H](CO)NC(=O)[C@H](CO)NC(=O)[C@H](Cc1c[nH]cn1)NC(=O)[C@H](Cc1c[nH]cn1)NC(=O)[C@H](CC(C)C)NC(=O)[C@H](Cc1ccccc1)NC(=O)[C@H](CCC(=O)O)NC(=O)[C@H](C)NC(=O)[C@H](CC(C)C)NC(=O)[C@H](CCCNC(=N)N)NC(=O)[C@H](CCC(N)=O)NC(=O)[C@@H](NC(=O)[C@H](C)NC(=O)[C@@H]1CSSC[C@H](NC(=O)[C@H](CCCCN)NC(=O)CC[C@H](NC(=O)CCCCCCCCCCCCCCCCCCC(=O)O)C(=O)O)C(=O)N[C@@H](CC(N)=O)C(=O)N[C@@H]([C@@H](C)O)C(=O)N[C@@H](C)C(=O)N[C@@H]([C@@H](C)O)C(=O)N1)[C@@H](C)O)C(=O)N[C@@H](CC(C)C)C(=O)N1CCC[C@H]1C(=O)N1CCC[C@H]1C(=O)N[C@H](C(=O)N[C@@H](CC(N)=O)C(=O)N[C@H](C(=O)NCC(=O)N[C@@H](CO)C(=O)N[C@@H](Cc1c[nH]cn1)C(=O)N[C@H](C(=O)N[C@@H](Cc1ccc(O)cc1)C(N)=O)[C@@H](C)O)C(C)C)[C@@H](C)O
B4: N-alpha-[2-(2-{2-[2-(2-{2-[(S)-4-Carboxy-4-(19-carboxyheptadecanoylamino)butyrylamino]ethoxy}ethoxy)acetylamino]ethoxy}ethoxy)acetyl]-[His1,Glu14,His17,Ser21,Hi … (peptide)
peptide: {19‑carboxyheptadecanoyl-γGlu-AEEA-AEEA}-HCNTATCATQRLAEFLHHSSSNFGPILPPTNVGSHTY-NH2
modifications: disulfide 2-7; reading uncertain; also: printed as N-alpha-[2-(2-{2-[2-(2-{2-[(S)-4-Carboxy-4-(19-carboxyheptadecanoylamino)butyrylamino]ethoxy}ethoxy)acetylamino]ethoxy}ethoxy)acetyl]-[His1,Glu14,His17,Ser21,His35]-pramlintide
B5: N-alpha-[(S)-4-Carboxy-4-(19-carboxynonadecanoylamino)butyryl]-[His1,Glu14,Arg17,Ser21,Ser28,Ser29,His35]-pramlintide (peptide)
peptide: X1-HCNTATCATQRLAEFLRHSSSNFGPILSSTNVGSHTY-NH2
modifications: disulfide 2-7
SMILES: CC[C@H](C)[C@H](NC(=O)[C@@H]1CCCN1C(=O)CNC(=O)[C@H](Cc1ccccc1)NC(=O)[C@H](CC(N)=O)NC(=O)[C@H](CO)NC(=O)[C@H](CO)NC(=O)[C@H](CO)NC(=O)[C@H](Cc1c[nH]cn1)NC(=O)[C@H](CCCNC(=N)N)NC(=O)[C@H](CC(C)C)NC(=O)[C@H](Cc1ccccc1)NC(=O)[C@H](CCC(=O)O)NC(=O)[C@H](C)NC(=O)[C@H](CC(C)C)NC(=O)[C@H](CCCNC(=N)N)NC(=O)[C@H](CCC(N)=O)NC(=O)[C@@H](NC(=O)[C@H](C)NC(=O)[C@@H]1CSSC[C@H](NC(=O)[C@H](Cc2c[nH]cn2)NC(=O)CC[C@H](NC(=O)CCCCCCCCCCCCCCCCCCC(=O)O)C(=O)O)C(=O)N[C@@H](CC(N)=O)C(=O)N[C@@H]([C@@H](C)O)C(=O)N[C@@H](C)C(=O)N[C@@H]([C@@H](C)O)C(=O)N1)[C@@H](C)O)C(=O)N[C@@H](CC(C)C)C(=O)N[C@@H](CO)C(=O)N[C@@H](CO)C(=O)N[C@H](C(=O)N[C@@H](CC(N)=O)C(=O)N[C@H](C(=O)NCC(=O)N[C@@H](CO)C(=O)N[C@@H](Cc1c[nH]cn1)C(=O)N[C@H](C(=O)N[C@@H](Cc1ccc(O)cc1)C(N)=O)[C@@H](C)O)C(C)C)[C@@H](C)O
B6: N-alpha-[(S)-4-Carboxy-4-(19-carboxynonadecanoylamino)butyryl]-[Glu14,His17,His34]-pramlintide (peptide)
peptide: {C20 diacid-γGlu}-KCNTATCATQRLAEFLHHSSNNFGPILPPTNVGHNTY-NH2
modifications: disulfide 2-7
SMILES: CC[C@H](C)[C@H](NC(=O)[C@@H]1CCCN1C(=O)CNC(=O)[C@H](Cc1ccccc1)NC(=O)[C@H](CC(N)=O)NC(=O)[C@H](CC(N)=O)NC(=O)[C@H](CO)NC(=O)[C@H](CO)NC(=O)[C@H](Cc1c[nH]cn1)NC(=O)[C@H](Cc1c[nH]cn1)NC(=O)[C@H](CC(C)C)NC(=O)[C@H](Cc1ccccc1)NC(=O)[C@H](CCC(=O)O)NC(=O)[C@H](C)NC(=O)[C@H](CC(C)C)NC(=O)[C@H](CCCNC(=N)N)NC(=O)[C@H](CCC(N)=O)NC(=O)[C@@H](NC(=O)[C@H](C)NC(=O)[C@@H]1CSSC[C@H](NC(=O)[C@H](CCCCN)NC(=O)CC[C@H](NC(=O)CCCCCCCCCCCCCCCCCCC(=O)O)C(=O)O)C(=O)N[C@@H](CC(N)=O)C(=O)N[C@@H]([C@@H](C)O)C(=O)N[C@@H](C)C(=O)N[C@@H]([C@@H](C)O)C(=O)N1)[C@@H](C)O)C(=O)N[C@@H](CC(C)C)C(=O)N1CCC[C@H]1C(=O)N1CCC[C@H]1C(=O)N[C@H](C(=O)N[C@@H](CC(N)=O)C(=O)N[C@H](C(=O)NCC(=O)N[C@@H](Cc1c[nH]cn1)C(=O)N[C@@H](CC(N)=O)C(=O)N[C@H](C(=O)N[C@@H](Cc1ccc(O)cc1)C(N)=O)[C@@H](C)O)C(C)C)[C@@H](C)O
B7: N-alpha-[(S)-4-Carboxy-4-(19-carboxynonadecanoylamino)butyryl]-[Glu14,His17,His32]-pramlintide (peptide)
peptide: {C20 diacid-γGlu}-KCNTATCATQRLAEFLHHSSNNFGPILPPTNHGSNTY-NH2
modifications: disulfide 2-7
SMILES: CC[C@H](C)[C@H](NC(=O)[C@@H]1CCCN1C(=O)CNC(=O)[C@H](Cc1ccccc1)NC(=O)[C@H](CC(N)=O)NC(=O)[C@H](CC(N)=O)NC(=O)[C@H](CO)NC(=O)[C@H](CO)NC(=O)[C@H](Cc1c[nH]cn1)NC(=O)[C@H](Cc1c[nH]cn1)NC(=O)[C@H](CC(C)C)NC(=O)[C@H](Cc1ccccc1)NC(=O)[C@H](CCC(=O)O)NC(=O)[C@H](C)NC(=O)[C@H](CC(C)C)NC(=O)[C@H](CCCNC(=N)N)NC(=O)[C@H](CCC(N)=O)NC(=O)[C@@H](NC(=O)[C@H](C)NC(=O)[C@@H]1CSSC[C@H](NC(=O)[C@H](CCCCN)NC(=O)CC[C@H](NC(=O)CCCCCCCCCCCCCCCCCCC(=O)O)C(=O)O)C(=O)N[C@@H](CC(N)=O)C(=O)N[C@@H]([C@@H](C)O)C(=O)N[C@@H](C)C(=O)N[C@@H]([C@@H](C)O)C(=O)N1)[C@@H](C)O)C(=O)N[C@@H](CC(C)C)C(=O)N1CCC[C@H]1C(=O)N1CCC[C@H]1C(=O)N[C@H](C(=O)N[C@@H](CC(N)=O)C(=O)N[C@@H](Cc1c[nH]cn1)C(=O)NCC(=O)N[C@@H](CO)C(=O)N[C@@H](CC(N)=O)C(=O)N[C@H](C(=O)N[C@@H](Cc1ccc(O)cc1)C(N)=O)[C@@H](C)O)[C@@H](C)O
B8: N-alpha-[(S)-4-Carboxy-4-(19-carboxynonadecanoylamino)butyryl]-[Glu14,His17,Lys35]-pramlintide (peptide)
peptide: {C20 diacid-γGlu}-KCNTATCATQRLAEFLHHSSNNFGPILPPTNVGSKTY-NH2
modifications: disulfide 2-7; not fully specified; printed as N-alpha-[(S)-4-Carboxy-4-(19-carboxynonadecanoylamino)butyryl]-[Glu14,His17,Lys35]-pramlintide
B9: N-alpha-[(S)-4-Carboxy-4-(19-carboxynonadecanoylamino)butyryl]-[Glu14,His17,Arg35]-pramlintide (peptide)
peptide: {C20 diacid-γGlu}-KCNTATCATQRLAEFLHHSSNNFGPILPPTNVGSRTY-NH2
modifications: disulfide 2-7
SMILES: CC[C@H](C)[C@H](NC(=O)[C@@H]1CCCN1C(=O)CNC(=O)[C@H](Cc1ccccc1)NC(=O)[C@H](CC(N)=O)NC(=O)[C@H](CC(N)=O)NC(=O)[C@H](CO)NC(=O)[C@H](CO)NC(=O)[C@H](Cc1c[nH]cn1)NC(=O)[C@H](Cc1c[nH]cn1)NC(=O)[C@H](CC(C)C)NC(=O)[C@H](Cc1ccccc1)NC(=O)[C@H](CCC(=O)O)NC(=O)[C@H](C)NC(=O)[C@H](CC(C)C)NC(=O)[C@H](CCCNC(=N)N)NC(=O)[C@H](CCC(N)=O)NC(=O)[C@@H](NC(=O)[C@H](C)NC(=O)[C@@H]1CSSC[C@H](NC(=O)[C@H](CCCCN)NC(=O)CC[C@H](NC(=O)CCCCCCCCCCCCCCCCCCC(=O)O)C(=O)O)C(=O)N[C@@H](CC(N)=O)C(=O)N[C@@H]([C@@H](C)O)C(=O)N[C@@H](C)C(=O)N[C@@H]([C@@H](C)O)C(=O)N1)[C@@H](C)O)C(=O)N[C@@H](CC(C)C)C(=O)N1CCC[C@H]1C(=O)N1CCC[C@H]1C(=O)N[C@H](C(=O)N[C@@H](CC(N)=O)C(=O)N[C@H](C(=O)NCC(=O)N[C@@H](CO)C(=O)N[C@@H](CCCNC(=N)N)C(=O)N[C@H](C(=O)N[C@@H](Cc1ccc(O)cc1)C(N)=O)[C@@H](C)O)C(C)C)[C@@H](C)O

target: T1, human amylin 3(a) receptor (human …); test: cell-based or functional assay

Row | Amylin receptor human EC50 [nM] | Binder
1 | 0.382 | B1
2 | 0.434 | B2
3 | 0.156 | B3
4 | 0.938 | B4
5 | 0.394 | B5
6 | 0.129 | B6
7 | 0.487 | B7
8 | 0.134 | B8
9 | 0.098 | B9

target: T2, human calcitonin (a) receptor; test: cell-based or functional assay

Row | CTa receptor human EC50 [nM] | Binder
10 | 0.113 | B1
11 | 0.277 | B2
12 | 0.169 | B3
13 | 1.08 | B4
14 | 0.57 | B5
15 | 0.115 | B6
16 | 0.124 | B7
17 | 0.13 | B8
18 | 0.104 | B9
